Data from the nanobody polyreactivity screen of Harvey et al. (2022).

experiment: yeast display, Sf9 membrane polyspecificity reagent, FACS + sequencing; frameworks hold sequencing errors
Method in brief: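 Nanobodies came from a synthetic yeast display library in Saccharomyces cerevisiae BJ5465, induced with galactose for 36–48 hours and stained for 1 hour at 4 °C with 10% biotinylated, detergent-solubilized Sf9 membrane reagent. Cells were enriched on streptavidin microbeads and then FACS-sorted, with low and high (top ~1%) gates set on anti-HA fluorescence for expression and streptavidin fluorescence for reagent binding. Each polyreactivity label reflects the gate a clone came from. Genes were amplified by colony PCR, sequenced by MiSeq 2 × 250 and filtered by CDR length.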

Sequence	polyreactivity (PSR sort gate)
QVQLVESGGGLVQAGGSLRLSCAASGRIFRFNAMGWYRQAPGKERELVAAITGSGGTTFYADSVKGRFTISRDNAKNTVYLQMNSLKPEDTAVYYCARQRTVKKYYYWGQGTQVTVSS	high polyreactivity
QVQLVESGGGLVQAGGSLRLSCAAYGPTFRYNTMGWNRQAPGKERELDARITWSGGSTYYADSVKGRFTISRDNAKNTVYLQMNSLKPEDTAVYYCAAVPILVYRWFQSYTGDYDYWGQGTHVTVSS	low polyreactivity
QVQLVESGGGLVQAGGSLRLSCAASGITFWTYAMGGYRQAPGKERELVAAISKTVGSTFYADSVKGRFTISRDNAKNTVYLQMNSLKPEDTEVYYCNARRRRTVGWQYNYWGQGTQVTVSS	high polyreactivity
QVQLVETGGGLVQAGGSLRLSCAASGRTFRAYAMGWYRQAPGKEMELVAAITSGGSTKYADSVNGRFTISRDNAKNTVYLQMTRLKPEDTAVYYCAATLALESYIYDYWGQGTQVTVSS	high polyreactivity
QVQLVESGGGLVQAGGSLRLSCAASGRIFYSYVMGWYRQAPGKDRELVGAITRSGGTTYYADSVMGRFTISRDNANNPVYLQMNSLKPEDTAVYYCATRSIFNGYGYYHPYNFWGQGTQVTVSS	high polyreactivity
QVQLVESGGGLVQAGGSLRLSCAASGSIFTDYTMGWYRQAPGKERELVAAISWIGDSTDYADSVKGRFTISRDNAKNTVYLQMNSLKPEDTAVYYCAKSRAGRYNDYDYWGQGTQVTVSS	low polyreactivity
QVQLVESGGGLVQAGGSLRLSCAATGSTYPRNDRGWYRQAPGKERELVAAISRGGSTNYADSVKGRFTISRDNAKNTVYLQMNSLKPEDTAVYFCAAQIFESAYGMDYWGQGTQVTVSS	low polyreactivity
QDQLVESGGGLVQAGGSLRLSCAASGSTFGNYAMGWYRQAPGKERELVAAITSGGTTNYADSVKGRFTISRDNAKNTVYLQMNSLKPEDTAVYYCNAVGTFVRYSTDGRDGVTYDYWGHGTQVTVSS	low polyreactivity
QVQLVESGGGLVQAGGSLRLSCAASGSTFASYAMGWYIQAPGKERELVAAITDSGGSTYYADSVKGRFTISRDNAKNTVYLQMNSLKPEDTAVYYCAAYGPYFSYHDYDYWGQGTQVTVSS	low polyreactivity
QVQLVESGGGLVQAGGSLRLSCAASGSTLHSYAMGWYRQAPGKERELVAAISFRGGSTYADSVKGRFTISRDNAKNTVYLQMNSLKPEDTAVYYCAAYSLYTMYWGQGTQVTVSS	low polyreactivity
QVQLVESGGGLVQAGGSLRLSCAASGGTFSFYTMGWYRQAPGKERELVAAISRSGGRTYYADSVKGRFTISRDHAQNTVYLQMNSLKPEDTAVYYCAAERFSNIYTTMGYWGQGTQVTVSS	high polyreactivity
QVQLVESGGGLVQAGGSLRLSCAASGRSLYNTMGWYRQAPGKERELVAGINWGGGRTYADSVKGRFTISRDNAKNTVYLQMNSMKPEDTAVYYCAADVNYQSRSHIVDYEYGYWGQGTQVTVSS	low polyreactivity
QVQLVESGGGLVQAGASLRLSCAASGSTFVIYTMGWYRQAPGKERDLVAAISWSGGITRYADSVKGRFTISRDNGKNTVYLQMNSLKPEDTAVYYCNASQWPSRFDYWGQGPQVTVSS	low polyreactivity
QVQLVESGGGLVQAGGSLRLSCAASGITFWVYVMGWYRQAPGKEREFVADISSGAGTTYYADSVKGRFTISRDNAKNTVYLQMNSLKPEDTAVYYCAARRWWPQWYDYWGQGTQVTVSS	high polyreactivity
QVQLVESGGGLVQAGGSLRLSCAASGIIFRYYAMGWYRQAPGKERELVAVITRSGGSTYADSVKGRFTISRDNAKNTVYLQMNSLKPEDTAVYYCAAQWYLGYATRWRGGYWGQGTQVTVSS	high polyreactivity
QVHLVESGGGLVQAGGSLRLSCAASGITFDLYAMGWYRQAPGKERELVAASTYYADSVKGRFTISRDNAKNTVYLQMNSLKPEDTAVYYCNTREPVTYDYWGQGTQVTVSS	high polyreactivity
QVQLVESGGGLVQAGGSLRLSCAASGSTFRLYAMGWYRQAPGKERELVAAIRSGGNTNYADSVKGRFTISRDNAKNTVYLQMNSLKPEDTAVYYCAATYGTGRRSKYGYWGQGTQVTVSS	high polyreactivity
QVQLVESGGGIVQAGGSLRLSCAASGFTISRYAMGWDRPAPGKERELVAAITGSGGSTYYADSVKGRFTISRDIAKNTVYLQMNSLKPEDTAVYYCNTMKHYKREYDYWGQGSQVTVSS	high polyreactivity
QVQLVESGGGLVQAGGSLRLSCAASGITFAQYAMGWYRQAPGKERELVAGITRSGGSTHYADSVKGRFTISRDNAKNSVYLQMNSLKPEDTAVYYCAKGLSTGRAYRGYDYWGQGTQVTVSS	high polyreactivity
QVQLVESGGGLVQAGGSLRLSCASSGFTFKFNAMGWYRPAPGKERELVAAISQSGVNTYYADSVKGRFTISRDNAKNTVFLLMNSLKPEDTAVYYCAADFSAYGYDYWGQGTQVTVSS	low polyreactivity
QVQLVESGGGLVQAGGSLRLSCAASGRTFSRNAMGWYRQAPGKERELVAAITSSGGSTYYADSVKGRFTISRDNAKNTVYLQMNSLKPEDTAVYYCNADATYRRGGGDYWGQGTQVTVSS	high polyreactivity
QVQLVESGGGLVQAGGSLRLSCAASGLTLGRYARGWYRQAPGKERELVAVITGGGSTNYADSVKGRFTISRDNSKNTVYLQMNSLKPEDTAVYYCAAARSPYKYSYWGQGTQVTVSS	high polyreactivity

Sequence	polyreactivity (PSR sort gate)
QVQLGESGGGLVQAGGSLRLSCAASGNIFRYYAMGWYRQAPGKERELVAAITWSGGSTYYADSVKGRFTISRDNAKNTVYLQMNSLKQEDTAVYYCNTYRVPYRTVQDDYWGQGTQVTLSS	high polyreactivity
QVQLVESGGGLVQAGGRLRLSCAASGRIFTYYVMGWYRQAPGKERELVASISGSGGRTYYADSVKGRFTISRDNAKNTVYLQMNSLKPEDTAVYYCATRLYKRTRTITYGYWGQGTQVTVSS	high polyreactivity
QVQLVESGGGLVQAGGSLRLSCAASGLTFVYYAMGWYRQAPGKERELVASITRGGSTNYADSVKGRFTISRDNAKNTVYLQMTSLKPEDTAVYYCAAGYGGWAWIHVSYGGDYWGQGTQVSVSS	low polyreactivity
QVQLVESGGGLVQAGGSLRLSCAASGRIFRYYAMGWYRQAPGKERELVAAISWSGGRTYYADSVKGRFTISRDNAKNSVYLQMNSLIPEDTAVFYCYAGYLYPGYFVREYDYWGQGTQVTVSS	high polyreactivity
QVQLVESGGGLVQAGGSLRLSCAASGSIFRYYAMGWYRQAPRKERELVAAISSNGGSTSYADSVKGRFTISRDNAKNTVYLQMNSLIPEYTAVYYCNTQFRYPQKYDYWGQGTQVTVSS	high polyreactivity
QVQLVESGGGLVQAGGSLRLSCAASGLTFVGYAMGWNRQAPGKERELVAAISGVGTTNYGDSVKGRFTISRDNAKNTVYLQMNSLKPEDTAVYYCAKAPYPVPYGLYDYWGQGTQVTVSS	low polyreactivity
QVQLVESVGGLVQAGGSLRISCAASGFIFEVYAMGWYRQAPGKERELIAAIRWSGTSTYYAYSVKGRFTISRDNAKNTFYLQMNSLKPEDTAVYYCAADSWDWHIGGEDYWGQGTQVTVSS	low polyreactivity
QDQLVESGGGLVQAGGSLRLSCAASGRNFYRYVMGWYRQAPGKERELVAAITSSGGSTYYADSVKGRFTISRDNAKNTFYLQMNSLKPEDTAVYYCAADRYTRYRYYYWGKGTQVTVSS	high polyreactivity
QVQLVESGGGLVQAGGSLRLSCAASGFTPGNVMGWYRQAPGKERELVAAISWSGDSTYYADSVKGRFTISRDNAKNTVYLQMNSLKPEDTAVYYCAARVVGSYRKTYPYGLYYWGQGTQVTVSS	high polyreactivity
QVQLVESGGGLVQAGGSLRLSCAASGNIFWWDAMGWYRQAPGKERELVAAITSDSTTYYADSVKGRFTISRDNAKNTVYLQMNSLKPEDTAVYYCAAYSYGGQGVDYGYWGQGTQVTVSS	low polyreactivity
QVQLVESGGGLVQAGGSLRLSCAASGNIFYSYAMGWYRQAPGKARELVATIRSGGSTYYADSVKGRFTISRDKAKNTVYLQMNSLKPEDTAVYYCAAPYPYRYFEYYWGQGTQVNVSS	low polyreactivity
QVQLVESGGGLVQAGGSLRLSCAASGFTVGYYAMAWYRQAPGKERELVAAISYVGGTTYYADSVKGRFTISRDNAKKTVYLQMNSLKPEDTAVYYCATLYRGSVRYYYWGQGTQVTVSS	high polyreactivity
QVQLVESGGGLVQAGGSLRLSCAASGNTFYHYVMGWYRQAPGKESELVAAISRSGGSTYYADSVKGRFTISRDNAKNTVYLQMNSLKPEDTAVYYCAARTSIGLLYDYWGQGTQVTVSS	high polyreactivity
QVQLVESGGGLVQAGGSLRLSCAASGSIFRYYAMGWYRQAPGKERELVATISWSGGGTYYADSVKGRFTISRDTAKNTVYLLMNSLKPDVTGVYYCAAVGTVPRKQRYHSYIDYDYWGQGTQVTVSS	low polyreactivity
QVQLVESGGGLVQAGGSLRLSCAASGFIFVSNAMGWYRQAPGKERELVAAISKSGARTSYADSVKGRFTISRDNAKNTVYLQMNSLKPEDTAVYYCAASGSGVGIYYKRGNYWGQGTQVTVSS	high polyreactivity
QVQLVESGGGLVQAGGSLRLSCAASGRIITYYAMGWYRQAPGKERELVAVISSVGGTYYADSVKGRFTISRDNAKNTVYLQMNSLKPEDTAVYYCAVGKIWSRRSSTSRFGYWGQGTQVTVSS	high polyreactivity
QVHLVESGGGLVQAGGSLRLSCAASGGIFFPNAMGWYRQAPWKERELVAAISWSAGSTYYADSVKGRFTISRDNAKNTVYLELNSVKPEDTAVYYCAAAGSKNTVLYGYYYWGQGTQVTVSS	low polyreactivity
QVQLVESGGGLVQAGGRLRLSCAASGSIFYYNVMGWYRQAHGKQRELVAAITWSGGTTYYADSVKGRFTISRDNAKNTVYLQMNSLKPEDTAVYYCIAASPYSWGYRRGYLGQGTQVTVSS	high polyreactivity
QVQLVESGGGLVQAGGSLRLSCAASGSIFVGNAMGWYRQAPGKQRELVATISWSGGSTYYADSVKGRFTISRDNAKNTVYLQMNSVKPEDTAVYYCNAVYVSSFTGHDYWGQGTQVTVSS	low polyreactivity
QVQLVESGGGLVQAGGSLRLSCAASGRIFAHYAMGWYRQAPGKERELVADITDGGSTYYADSVKGRFTISRDNAKNTVYLQMNSLKPEDTAVYYVATRRGPWPSEYDSWGQGTQVTVSS	low polyreactivity
QVQLVESVGGLVQAGGSLRLSCAASGRTIVSNAMGWYRQAPGKERELVAAITRGSRTYYADSVKGRFTISRDNAKNTVYLQMNSLKPEDTAVYYCNARHVRYPFTGNYWGQGTQVTVSS	high polyreactivity
